Test results reported in patent US20060246541A1.

Molecular target: GPIIb/IIIa (integrin αIIbβ3)
Experiment: cell-based or functional assay

For “native contortrostatin (from UniProt Q805F6 419-482) (ligand)”, the IC50, inhibition of ADP-induced platelet aggregation was 60 nM.
